According to patent US8029979B2, “Method for determining the substrate specificity of an enzyme” (JPT Peptide Technologies GmbH, priority 2001, dated 2011):
BA1 = not defined here

Columns and labels:
[1] = molecular target: T1, protein kinase A (Bos taurus, UniProt P00517); experiment: Time-dependent incubation of various modified surfaces with protein kinase A (FIG. 3, Example 31); assay type: biochemical; conditions: protein kinase A 2 U/mL, incubated for the given time at 25° C.
T1 construct: purchased Sigma P26452 as printed
Method: (§1) FIG. 3. The peptide Leu-Arg-Arg-Ala-Ser-Leu-Gly-NH2, modified at the N-terminus with the dipeptide cysteinyl-β-alanine, was coupled to maleinimido-functionalised surfaces by a Michael addition (maleinimido-functionalised glass surface, Sigma, Silane-Prep™, S4651; as well as maleinimidobutyryl-β-alanine-functionalised, modified polypropylene membranes). The modified glass surfaces were first pre-incubated for 10 minutes using 20 mL of 100 μM ATP solution in 50 mM of sodium phosphate buffer pH 7.5. […] (Example 31). The phosphorylation of the corresponding peptides was detected using a FUJIFILM PhosphorImager. The signal intensity of the respective spot is given below the figures. […] FIG. 4. […] After incubation for 30 min at 25° C. the phosphorylation of the corresponding peptides was detected using a FUJIFILM PhosphorImager. […] After incubation for 30 min at 25° C. the phosphorylation of the corresponding peptides was detected using a FUJIFILM PhosphorImager. […]
After drying the glass surface the quantity of radioactive phosphate incorporated in the glass-surface-bound peptides was determined using a PhosphorImager system (FLA-3000, FUJIFILM) (see FIG. 3).

[2] = molecular target: T1, protein kinase A; experiment: Incubation of modified glass surface with protein kinase A under cover glass (FIG. 5, Example 26); assay type: biochemical; conditions: protein kinase A 10 U/mL, 30 min at 25° C.
Method: as §1, with “4. The control peptide Leu-Arg-Arg-Ala-Ala-Leu-Gly-NH2, the peptide […] and the synthesis raw product […], each modified at the N-terminus with the dipeptide cysteinyl-β-alanine, were coupled to a maleinimido-functionalised glass surface by a Michael addition (Example 1).” for “4.”

## Cys-BA1-Leu-Arg-Arg-Ala-Ser-Leu-Gly-NH2 ({Cys-BA1}-LRRASLG-NH2; reading uncertain; also: printed as Cys-BA1-Leu-Arg-Arg-Ala-Ser-Leu-Gly-NH2) [compound 85]
[1]; modified glass surfaces
  kinase-mediated incorporation of radioactivity into the substrate amino acid sequence: clear time dependence
[1]; modified polypropylene surfaces
  kinase-mediated phosphorylation signal on polypropylene: only non-specific binding of ATP or kinase to the peptides is measured
[2]
  signal intensity for the substrate amino acid sequence higher than that for the control product: 800%
